The values below come from the DeepSol protein solubility set.

This data set in a line: soluble on expression in E. coli; label from the status in PepcDB or PDB records.
On to “MGSDKIHHHHHHMEQNAEKRSIVGDDNSTVKRQDTSPSKGIAHIKPEYIVPLKQNENQKVAIYDEEMSSDRMTNEFAGGTNKKNKNGRGKKRGQNKNRDNRQVKEQNVLCPRLIHGDISKCSFGDNCRFVHDINLYLSTKKPEVESNIFPSCPVFNSLGFCPMGFKCRFLSSHLNKEDNILISKKEIDPDAQTIWSVKGEVNHISPERKLDLIKRRFPFTKSNEILEIIDSFQQECRDSMKPEEEVESTPQLKKQDPDVEQPVAPQVEQRNKELSEHRMKQREVYLKYKDTRYFAQEKKPLDLYHKKIVSPLTTVGNLPYRRLMRKLGADVTYSEMALAVPLIQGTNSEWALPKAHTSEFPGFGVQVACSKAWQAAKAAEALANSVSEISEINLNSGCPIDLLYRQGSGSALLDNPARMIRCLNAMNYVSKDIPITVKIRTGTKEGHPIAEGLVKRLVNETDVAAITLHGRSRQQRYTKSADWDYVSQVADTLRSAEADFIETEQGKEGRDSKNRIQFVGNGDVNNFEDWYRYLNGNENIDSVMVARGALIKPWIFEEVESQQYLDKTSTERLDILRDYAQFSMEHWGTDEYGISQCRRFFCEFMSFFHRYVPWVFVKDTL”, for which the “soluble on expression in E. coli” value was “not soluble”.
With “MLNNKRLFTSESVTEGHPDKIADQVSDAILDAILKDDPNARVACETTVTTGMALIAGEISTTTYVDIPKVVRETIKEIGYTRAKYGYDYETMAILTAIDEQSPDIAQGVDKALEYRDKDSEEEIEATGAGDQGLMFGYATNETETYMPLAIYLSHQLAKRLSDVRKDGTLNYLRPDGKVQVTVEYDENDNPVRIDTIVVSTQHAEDVTLEQIQEDIKAHVIYPTVPENLINEQTKFYINPTGRFVIGGPQGDAGLTGRKIIVDTYGGYARHGGGCFSGKDPTKVDRSAAYAARYVAKNIVAAGLADQCEVQLAYAIGVAEPVSIAIDTFGTGKVSEGQLVEAVRKHFDLRPAGIIKMLDLKQPIYKQTAAYGHFGRTDVLFPWEKLDKVEELKDAVK” the entry was “not soluble”.
As to “MGSSHHHHHHSSGLVPRGSHMKLNRVVVTGYGVTSPIGNTPEEFWNSLATGKIGIGGITKFDHSDFDVHNAAEIQDFPFDKYFVKKDTNRFDNYSLYALYAAQEAVNHANLDVEALNRDRFGVIVASGIGGIKEIEDQVLRLHEKGPKRVKPMTLPKALPNMASGNVAMRFGANGVCKSINTACSSSNDAIGDAFRSIKFGFQDVMLVGGTEASITPFAIAGFQALTALSTTEDPTRASIPFDKDRNGFVMGEGSGMLVLESLEHAEKRGATILAEVVGYGNTCDAYHMTSPHPEGQGAIKAIKLALEEAEISPEQVAYVNAAGTSTPANEKGESGAIVAVLGKEVPVSSTKSFTGHLLGAAGAVEAIVTIEAMRHNFVPMTAGTSEVSDYIEANVVYAQGLEKEIPYAISNTFGFGGHNAVLAFKRWENR”, the “soluble on expression in E. coli” value is reported as “soluble”.
In the case of “MSLSHSEAGQAASVRRVLAVIPARGGSKGVPAKNLLPVGGVPLVARAVRECRATRLVTDVVVSTDDHAIAAAAREAGAEVVLRPAAIAGDTATSEAAVLHAMDTHEALHGAAVDVVLLVQCTSPFIVREDVDGVVHAIVGKGADTALTVAPFHGFVWRDADDAPGALGAERAAVEGGTDTLVTGTATSGGYGINHDKSFRPRRQDRPQDLLETGAVYGMDATGFREARHRFFGRTELVRTDPARVLEIDDPHDLARARALAPLFDANRPGALPTAEDIDAVVLDFDGTQTDDRVLIDSDGREFVSVHRGDGLGIAALRKSGLTMLILSTEQNPVVAARARKLKIPVLHGIDRKDLALKQWCEEQGIAPERVLYVGNDVNDLPCFALVGWPVAVASAHDVVRGAARAVTTVPGGDGAIREIASWILGPSLDSLDKEGHHHHHH”, the “soluble on expression in E. coli” value is reported as “soluble”.
Regarding “GSHMGRSQKVSQMTKVETRLEILDVTLRDGEQTRGVSFSTSEKLNIAKFLLQKLNVDRVEIASARVSKGELETVQKIMEWAATEQLTERIEILGFVDGNKTVDWIKDSGAKVLNLLTKGSLHHLEKQLGKTPKEFFTDVSFVIEYAIKSGLKINVYLEDWSNGFRNSPDYVKSLVEHLSKEHIERIFLPDTLGVLSPEETFQGVDSLIQKYPDIHFEFHGHNDYDLSVANSLQAIRAGVKGLHASINGLGERAGNTPLEALVTTIHDKSNSKTNINEIAITEASRLVEVFSGKRISANRPIVGEDVFTQTAGVHADGDKKGNLYANPILPERFGRKR”, the “soluble on expression in E. coli” value was “soluble”.
Consider “MSNIAKTSEALQARIRELCGDQLREVGTHPGHWDDSAVRHIVRNPPAAYVVWLGHVPGEHPHVVQARWAVYVVANVLDGQRQNDPGIYQLVEKLSAGLHRCRIAPSGTFDVVLRQAAHLSCYRCKTCGPIRKAAWAWRFTACILKRRNRAITGEMMAQTKITLLAPHKHAGKQYQAGEVLSVDEQSAKFILNMGIGKPAEPVRKNPKLNTEDKQNAK”, for which the “soluble on expression in E. coli” value was “not soluble”.
With “MGSDKIHHHHHHLNAKIVCVSNKQLTISLDDFSGPLDLLLHLIRTQELDIFDLPIAKVTDQFLSFIDNQLNPSLDSAGEYLYMASTLIRIKSRFLLPTVKNEQEDEKEEDPRNELVNALIEYECYQAVTQDMSELEHSRSLSFTRPVAKIPENIEIKPLSAGVTLQDLQKAFLEIANRQKDLHPKKRTIERENFSVADKINEIKTFFGQKKLDSKIEFQYLFKLSSSNDEMITTFLAILELAKDHFILLSQNDEQQIFLTKGEMNA”, the “soluble on expression in E. coli” value was “not soluble”.
Consider “MSLTLKLFELVGADAGRPFSPFVWRTRMALAHKGLTAETIPWRFTDKAAIAPYGSEKVPVLLDGDKVVADSWAIANYLEDAYPDRPSLFGGDGGRAMARMLNWWGDLAIIGGIFPMIVADIAQRLDPEDAAYFRQSREARLKTTLEEAAASRDRAVQGFRKSLDPLRLTLKTQAFIGGAAPNYADYIVFGGFQWARVVSDFSLLQSDDPVYAWRERLLDAFGGLARATPGYPVEGHHHHHH”, for which the “soluble on expression in E. coli” value was “soluble”.
With “HRRNATSLQLSRCANIADRTGLDALGGRRHSRRCPPPQRGLAAIKPLRQHRRRPVRSHIGGNQFADLPHQVDAFVHGKTDAVMLQPRQHAAKRGLRSIVRHFFIRQYRSLIIKRRAHTPGIRQLYRIAHCLRRPVLCGEPFYGFLFESNPLRLIEAV” the entry was “not soluble”; with “MNFEDVFREFGELWYDIEFVLTTVIKTKNVTPILTLSGEFCVPGIHALYNIFHIMISVLRIFQKVKHDTWHLVTDYVNILETRLKPFERTPCFITNTALETIIQELCEYWRMLENVPCKDIRSIEGARFTENDWKNELIRIGLSDIFPELVEFFDAGYQVLLNIAQNGDTLKTSDLICHLESTQAFCFSSRFKFLEVASDIQQGIYPKFRNSVNVFIGIASKSESLLPHLKARSRYEGILSAMQVDKQLVPPPIQICHKLIIDAETVSNPTPVPQQLEKKTENCSECSDVRMEMYTVKDVLQNVQKQLKNMQQNSEQFETKLVASDNKTKNFEKQLEDERRKNNKHLESSRKTLISKNEQLEALKRRATALSNCQAENQTLKFKIAEHHDLEKQLNISNKDVTQARDQLSGQISELEIQLKSELKNVEHLNKEHKKAIDLANEISKLKTEIERETSISKQLEKEISQLRTETDEMNIVITQSLEMENLQLRDVTKKFETENASLLKTNQQLSIQNEEQKRLIQVLLEKQQTAPSSSDFPVPSTQMTDNEENSRQQLWKYQKIKDSFRDGMKLRKAEAMVKKLTSLDRDLGVHQMAHRELENFKKLTSYYLQAIEMNIPKIKNNGSSDLEQLPEAPKFSNEFMRFYRNATGKQPLTSSSSSSANPRSTHIEGSSISTMPSTSSRGNVQHHSGSAVRGQSITPTGLSQVPMSPRKLFSQPDIVTASVPSTELDDTECAICLDEMTNFKETIKCECRRRFHLKCATKWLNEKRECPTCRKLLLNPADYPPLN”, “not soluble”; with “MARRNDHTREELVALTLDRVKQFLDTHSYHELSLRKVATMIGYVPSTLVNVFGNYNLLLLHVVAQTLDELAQEAQQAVKSTTYPKDALYQLAYCYHDFAKRNPYRWQLIFEHNMNGEMLPEWQAQRINNMTSMLEDLLKVIAPLRSEQEVLQASRVLWSGVHGITILSVDDKFFANEPIDGNALINNLLNHYLANW”, “not soluble”.
With “MAHHHHHHMRLASPFSRAAWQLQETHNLSPLLRRRACAAPVAATSPSAFCTARRCLSQQASHWLNKLRYGADDAPTMGSWDSAYEDDAMDTRKLYCKALVHASGGSRLARDWIAGCAALTSPDPSLIYTALQHAATEADVEELREHILGRLLAQESPRRGGRSGGSCDNEVRTSFGMYEESEREVVVPGTGNVAVKRAVAPNCAGQSSIHERDGKDGASEATSPPITSEGIRDAEHYLLQRSREVRCFMYDAMTASLFHSNNDLRTVEAARRHTFWIGLTQFGLSFDELTALWRLVEAELLLKKEKIKVLGQPWGE” the entry was “soluble”.
With “MAHHHHHHMSATRDGSRSHSDGGFDGRSLLSEQTKLLRESTPADINFIQFLKLRLSAQQRATAQRNYWQRVQREAADSMNANTAHRQGRGGISASVAPVSTSAAGRESEASSNHIGSGRRNWHAAGSAEGASFSTYDAEHMMLEHSTASFGTLSKQDAFTRATSHGAVPPPTVHQHSFEDLRAAVLKRRSTPASELTDFVAVSTAELSEDGNSSQRRPSGPLQEEDAYALAPFIASSYSAAAAAAIDERPAMACGKPQVPVDVDEMKDVALEPCPHCGRTFAPARLERHVVTCERHRNTLPKTKGDMKSCRAFSSRKKPDRTAGGDGAAASAAATANTAGAAPGGPLRWSTDTAIKPEKWRKQSAQLRNAMAGASVAVDDDRVLCPSCGRHFSDDVAARHIPICKSKGGRAA” the entry was “not soluble”.
With “MGSDKIHHHHHHEPVSSISDANYWKSPDLFKAFNIGLHGLLRSQSSYNIFVLGEPRSDIYGDQPFGGEATQGVERFSYNTINAEFTGISNFANFYTTLNQINLMIRRTNETDLLGEAEKNYYLGQAYGLRAYIYFHLLRSWGDVIITTEPTLGSELDISHLDKAASPASEVMDLIKKDIDASEKAFGGDYSYKQGKCYWSKPATLMLKGEVYLWSGRQMGGGTGDYTVAKTALQDLQQNGNLKLQEKFTDVFSFNNKENSEMIFALHSGKEDDFMMWRDYNWRNNMVPQREYMAGYCDETGTPFLEIPGYNLQGLMRYQVKKDHYLKSFREGDTRLKGTLKAVYKKHEDGTLEYIAPIQYKFQGTTLEGSNERSWYDDYPIYRYADALLLLAEAKALLGEDPSTEINAVRERAYGSEYFNAHKNEVAYPNDKGSFYNDNPFEAGDENVMEAILKERLREFFFEGKRWYDLRRFGKDYVLKYTTAQESRLLWPINEGALTNNPALKQTPGY”, the “soluble on expression in E. coli” value is recorded as “not soluble”.
In the case of “MGTKLPRKLEQKMQIVGEQIKLARLRRNLSIAQIAERATCSPLTVGRIEKGSPTVAIGIYARVLYALQLEDDLLHLAGADELGRRLQDLSLINRRRASKKG”, the “soluble on expression in E. coli” value is on record as “not soluble”.
On to “MGNNQPGGMYKRDRPYDSEKSGSHSRSRGGIPSSSPSNEDECPVQMKIAKGDDKSKFPVVFKWNINNATPRQVYICGSWDGWNTKIPLVKSTSDFSTIVDLEPGKHEYKFMVDSKWVVDDNQQKTGNNLGGENNVVMIDEADFEVFDALDKDLASSNAGEALRNSHPTKESHDTPNDRELEKLHQFGQETPTRVDFNKAAAPPVLPPHLLQVILNKDTPVQCDPNVLPEPDHVMLNHLYALSIKDGVMVLSATHRYRKKFVTTLLYKPI”, for which the “soluble on expression in E. coli” value is recorded as “soluble”.
Take “MSLASGNTLTYGLVVPDISNPFFASMARALQREAFNHGRVLLLGDAGDDRQHEHDLINHLLRRQVDGLLYTSVDRHPWFDLIRNSGTPCVMIDTIDSHAGISAIRVNERDAACQATRHLLQHGYRELGIFVGPLTMLNAQDRLNGWRDALIEAGITPREEWIFEAPYTRKGGYQASQKMLQGPCPRAIFTSNEQQALGCLSALAEHQLRVPDDLAIICFNGTQQSEFSVPPLSAVEQPIDAMARQAIAMLATGTAQPELHEFAFQLHIRRSEGHHHHHH”: the “soluble on expression in E. coli” value is “soluble”.
As to “MPNYLENVKDAAAIIASARRIMVVGCSGGGKSTLSQKLAAAFGLRYISMDRDIFWLPGWQLRPREEQRQRIAAVVTEDRWLMDGSNPSSFDLRLPRTDIVLWVRMPRWLCLWGAVSRIVKGYGKARPEMAAGCPERIDLDFLRYIWNFERRHTPVFEESFALHGPNVPIFQLKSRKQIRRLLDLLVVEDLEHHHHHH”, the “soluble on expression in E. coli” value is recorded as “soluble”.
